Data on three molecules can be found in patent publication US20260227386A1, “DIAGNOSIS AND TREATMENT OF NEUROGENIC HETEROTOPIC OSSIFICATION” (SERVIZO GALEGO DE SAÚDE, priority 2023, published 2026).

The subject of assay [1] is SaOS2 cells. Kind of assay: Inflammatory stimuli (IL1β, LPS) on SaOS2 differentiated with ACM, RT-PCR. Type of assay: cell-based, Human. Here is the method: To determine the effect of an external inflammatory factor on the differentiation process of SaOS2 stimulated with ACM, SaOS2 cells were seeded and stimulated with the ACM in the presence and absence of 0.1 ng/ml of IL1 and 100 ng/mL of lipopolysaccharide (LPS). To do this, once the SaOS2 completed the 3-day differentiation with the ACM, these cells were treated with the inflammatory stimuli and were differentiated for a further 48h.
(§1) RNA was extracted using TriReagent® and the RNA extraction Kit E.Z.N.A. Total RNA Kit I® (Omega Bio-Tek Inc., Norcross, GA, USA) following the manufacturer's instructions. The gene expression of bone related markers, inflammatory and adipogenic markers were measured using iTaq Universal SYBR Green Supermix (BioRad Laboratories, Hercules, CA, USA). Relative quantitation was performed using the ΔΔCt Comparative Method. Results are expressed as 2^−ΔΔCt versus unstimulated control or DM.

The subject of a further assay is ATDC5 cells. Kind of assay: ATDC5 differentiation into chondrocytes, gene expression by RT-PCR. Type of assay: cell-based. The conditions noted are these: TGFβi 3 μg/mL. Here is the method:
(§2) SaOS2 were differentiated for 3 days, C3H10T1/2 for 7 days, and ATDC5 for 14 days. In order to induce cell differentiation, the media were changed three times a week in SaOS2 and ATDC5 cells, starting the process 24 h post-culture. In these cells, the same medium was used in all the changes made. Regarding the C3H10T1/2, two media were used to differentiate them into adipocytes: the induction medium which was changed after 6 h post-culture, and the maintenance medium which replaced the induction medium after 4 days. after culture. All cells were seeded in 24-well plates (Thermo Fisher Scientific, Waltham, MA, USA).
(§3) SaOS2, C3H10T1/2, and ATDC5 cells were differentiated in the presence or absence of 3 μg/mL of human recombinant protein transforming growth factor beta-induced (TGFβi), similar concentration to TGFβi-blood levels. It should be noted that this protein was added newly in every medium change corresponding to the differentiation of each cell line.
as §1

The subject of assay [2] is SaOS2 cells. The assay can be described thus: SaOS2 differentiation into osteoblasts, gene expression by RT-PCR. The conditions noted are these: SaOS2 differentiated into osteoblasts three days, presence or absence of stimulus (ACM; TGFβi 3 μg/mL). Type of assay: cell-based, Human. The protocol:
as §2
After 24 h SaOS2 post-culture, the medium was changed to ACM, and they were differentiated for 3 days.
as §3, §1

Assay [3] relates to C3H10T1/2 cells. The assay can be described thus: C3H10T1/2 differentiation into adipocytes, gene expression by RT-PCR. Type of assay: cell-based. The conditions noted are these: C3H10T1/2 differentiated into adipocytes seven days. The protocol: as §2
Regarding the C3H10T1/2, due to the difference in the composition of their differentiation media and that of the SaOS2, we proceeded with the concentration and purification of the 2 mL DM and ACM proteins, using the filter units 3 kDa Amicon® Ultra-0.5 mL Centrifugal Filters Ultracel 3K (Millipore, Burlington, Massachusetts, USA) following the supplier's instructions. Once the process was finished, the pellets were resuspended in the differentiation medium corresponding to the cell line, filtered through a 0.2 μm filter (Thermo Fisher Scientific, Wlatham, MA, USA), and cells were differentiated for 7 days as was previously described. For cell differentiation stimulated with the NCM, NCM was concentrated using Amicon® Ultra-0.5 mL Centrifugal Filters Ultracel 3K 3 kDa centrifugal filter units, according to the supplier's specifications. Then, they were resuspended with the C3H10T1/2 differentiation medium and filtered through a 0.2 μm filter. Finally, C3H10T1/2 cells were differentiated into adipocytes in the presence and absence of NCM for 7 days, as previously described.
as §3, §1

Assay [4] deals with C3H10T1/2 cells. The assay can be described thus: RNA quantification and cell counting. Type of assay: cell-based. The conditions noted are these: C3H10T1/2 differentiated to adipocytes seven days, TGFβi 3 μg/mL. From the text:
The RNA of the differentiated C3H10T1/2 was quantified using a NanoDrop One® spectrophotometer (Thermo Fisher Scientific, Wlatham, MA, USA).
Moreover, microscopic photos of the different conditions were taken. Subsequently, the photograph was divided into 3 rectangles of equal size and positioned in the same place in the images. The live cells were counted, and the number of cells was compared with the rest of the samples.

[5] abbreviates: SaOS2 differentiated three days with ACM, then IL1β 0.1 ng/mL for 48h.
Where [6] appears, read: ATDC5 differentiated into chondrocytes three, seven, fourteen days.
Where [7] appears, read: presence or absence of stimulus (ACM; NCM; TGFβi 3 μg/mL).

As to IL1β: inflammatory stimulus, 0.1 ng/ml, in the assay on SaOS2 cells [1] (setting [5]), the “BMP2 gene expression induced by ACM” value is recorded as “increased”, the CCL2 gene expression result was “increased”, the IL6 gene expression result is on record as “increased” and the “LIF gene expression induced by ACM” value is listed as “increased”. In the assay with SaOS2 cells [1] (setting [5]), the SPP1 gene expression result is “did not modify” and the VCAM gene expression result is on record as “increased”.
Consider lipopolysaccharide [LPS], for which the “inflammatory profile or bone metabolism” value in the assay on SaOS2 cells [1] (SaOS2 differentiated three days with or without ACM, then LPS 100 ng/ml for 48h) is on record as “did not alter”.

B1: TGFβi: human recombinant protein transforming growth factor beta-induced, used at 3 μg/mL (protein)
chain: GPAKSPYQLVLQHSRLRGRQHGPNVCAVQKVIGTNRKYFTNCKQWYQRKICGKSTVISYECCPGYEKVPGEKGCPAALPLSNLYETLGVVGSTTTQLYTDRTEKLRPEMEGPGSFTIFAPSNEAWASLPAEVLDSLVSNVNIELLNALRYHMVGRRVLTDELKHGMTLTSMYQNSNIQIHHYPNGIVTVNCARLLKADHHATNGVVHLIDKVISTITNNIQQIIEIEDTFETLRAAVAASGLNTMLEGNGQYTLLAPTNEAFEKIPSETLNRILGDPEALRDLLNNHILKSAMCAEAIVAGLSVETLEGTTLEVGCSGDMLTINGKAIISNKDILATNGVIHYIDELLIPDSAKTLFELAAESDVSTAIDLFRQAGLGNHLSGSERLTLLAPLNSVFKDGTPPIDAHTRNLLRNHIIKDQLASKYLYHGQTLETLGGKKLRVFVYRNSLCIENSCIAAHDKRGRYGTLFTMDRVLTPPMGTVMDVLKGDNRFSMLVAAIQSAGLTETLNREGVYTVFAPTNEAFRALPPRERSRLLGDAKELANILKYHIGDEILVSGGIGALVRLKSLQGDKLEVSLKNNVVSVNKEPVAEPDIMATNGVVHVITNVLQPPANRPQERGDELADSALEIFKQASAFSRASQRSVRLAPVYQKLLERMKH
With B1, in the assay with ATDC5 cells (setting [6]), the COL2A1 gene expression entry was “decrease”, the COLX gene expression entry is “decrease” and the SOX9 gene expression entry was “decrease”. Moreover, the SPP1 expression result in the assay with ATDC5 cells (early stages of ATDC5 differentiation) is on record as “increased”. In the assay on SaOS2 cells [2], the AXIN2 gene expression entry is recorded as “did not modify”, the BMP2 gene expression entry is given as “increased”, the BMP4 gene expression result was “did not modify” and the CCL2 gene expression entry is on record as “increased”. Further, in the assay on SaOS2 cells [2], the CD44 gene expression entry is “did not modify”, the GPNMB gene expression result is on record as “did not modify”, the LIF gene expression result is “did not modify” and the OPG gene expression entry is reported as “did not modify”. In addition, in the assay with SaOS2 cells [2], the PDGFRβ gene expression result is given as “did not modify”, the PDGFβ gene expression result is “did not modify”, the RANKL gene expression result is “did not modify” and the RANKL/OPG ratio entry is reported as “did not modify”. Further, in the assay with SaOS2 cells [2], the RUNX2 gene expression result is reported as “did not modify”, the SPP1 gene expression result is listed as “increased”, the TGFβi gene expression result was “increased” and the VCAM gene expression result is given as “increased”. Besides, in the assay with SaOS2 cells [2] (listed as TGFBi recombinant), the BMP2 gene expression result is on record as “partial recapitulation”, the CCL2 gene expression entry was “partial recapitulation”, the SPP1 gene expression result is reported as “partial recapitulation” and the VCAM gene expression entry is listed as “partial recapitulation”. In the assay on C3H10T1/2 cells [3] (setting [7]), the ADIPOQ gene expression result is reported as “reduced”, the AXIN2 gene expression entry was “no modifications”, the CCL2 gene expression entry is “no modifications” and the CD44 gene expression result is recorded as “increase”. Further, in the assay with C3H10T1/2 cells [3] (setting [7]), the FABP4 gene expression entry is “reduced”, the GPNMB gene expression entry is “no modifications”, the IL6 gene expression result is given as “no modifications” and the PLIN2 gene expression entry is on record as “reduced”. For the same molecule, in the assay with C3H10T1/2 cells [3] (setting [7]), the PPARG gene expression entry is listed as “reduction was statistically significant”, the RUNX2 gene expression entry was “increase”, the SPP1 gene expression entry is listed as “increase” and the VCAM gene expression entry is reported as “increase”. Besides, in the assay with C3H10T1/2 cells [3] (presence or absence of stimulus (ACM; NCM; TGFβi 3 μg/mL), listed as TGFBi), the PPARG gene expression result is “significantly decreased”. Moreover, the TGFβi gene expression entry with C3H10T1/2 cells [3] (presence or absence of stimulus (ACM; TGFβi 3 μg/mL)) is recorded as “increase”. Also, in the assay with C3H10T1/2 cells [4], the “cell proliferation: amount of RNA” value is recorded as “increase” and the “cell proliferation: number of cells” value is listed as “increase”. Also, in the assay with C3H10T1/2 cells [4] (listed as TGFBi), the “cell proliferation: amount of RNA” value is listed as “differences on cell proliferation were observed” and the “cell proliferation: number of cells” value is “differences on cell proliferation were observed”.
